This is an account of results in IntAct's records for PubMed 17948060.

First the molecules themselves.
B1: G1/S-specific cyclin-D1 (Mus musculus), P25322 (parent)
chain: MEHQLLCCEVETIRRAYPDTNLLNDRVLRAMLKTEETCAPSVSYFKCVQKEIVPSMRKIVATWMLEVCEEQKCEEEVFPLAMNYLDRFLSLEPLKKSRLQLLGATCMFVASKMKETIPLTAEKLCIYTDNSIRPEELLQMELLLVNKLKWNLAAMTPHDFIEHFLSKMPEADENKQTIRKHAQTFVALCATDVKFISNPPSMVAAGSVVAAMQGLNLGSPNNFLSCYRTTHFLSRVIKCDPDCLRACQEQIEALLESSLRQAQQNVDPKATEEEGEVEEEAGLACTPTDVRDVDI
partner: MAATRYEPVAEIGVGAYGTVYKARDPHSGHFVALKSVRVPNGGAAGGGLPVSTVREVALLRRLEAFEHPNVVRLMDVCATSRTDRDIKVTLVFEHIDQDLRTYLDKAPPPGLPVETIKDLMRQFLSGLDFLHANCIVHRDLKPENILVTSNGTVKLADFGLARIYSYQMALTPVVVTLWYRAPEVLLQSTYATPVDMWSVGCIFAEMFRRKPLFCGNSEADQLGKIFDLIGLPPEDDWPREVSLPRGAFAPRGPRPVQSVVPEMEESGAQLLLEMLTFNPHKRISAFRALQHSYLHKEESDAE

In this assay the parent is B1. Conditions: with cdk4_mouse Cdk4, P30285.
Turning to K114A, the “effect of a mutation on the interaction” value was “disrupting interaction”.
